From patent US20240043859A1, “HERBICIDE-RESISTANT PROTEIN, AND GENE AND USE THEREOF” (QINGDAO KINGAGROOT CHEMICAL COMPOUND CO., LTD., priority 2020, published 2024)
“Also recorded” adds a separate entry of the source.

Tests used:
[1] = Chromogenic reaction of degrading herbicides in bacteria: triclopyr; format: cell-based, Escherichia coli; conditions: recombinant E. coli expressing the gene
[2] = Chromogenic reaction of degrading herbicides in bacteria: 2,4-D; format: cell-based, Escherichia coli; conditions: recombinant E. coli expressing the gene, 2,4-D added to the medium, red = phenols
In short: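 E. coli BL21(DE3) carrying AAD12 or empty pET15b was induced with 0.1 mM IPTG plus 2 mM α-ketoglutarate and given 0.5 mM 2,4-D, then grown overnight at 28 °C. Supernatant was treated with pH 10 borate, potassium ferricyanide and 4-aminoantipyrine for 5 min at room temperature; red colour read at A510.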

maize B104 = assay: Herbicide-resistance capacity testing of transgenic maize (spray); format: in vivo; conditions: 2,4-D 4.48 kg/ha foliage spray, 14 days / 15 days after spraying
Source text: 1. Vector construction: the overexpression vector was altered from pCambia3300, containing a Bar resistance gene that can be used as a selection marker for bialaphos (glufosinate). The AAD-like gene, QYD42, SEQ ID NO. 83, was linked to the pCambia3300 at the BamH I restriction site by seamless cloning to construct the transgenic vector pQY2329, of which the expression cassette consisted of a maize ubiquitin-1 promoter, the AAD gene and a Nos terminator, as shown in FIG. 7-1.
2. Genetic transformation of maizes: Maize transformation was carried out by the Agrobacterium-mediated immature embryo transformation method (Jones T, Lowe K, Hoerster G, et al. Maize Transformation Using the Morphogenic Genes Baby Boom and Wuschel2. Methods Mol Biol. 2019; 1864:81-93. Doi: 10.1007/978-1-4939-8778-8 6). The Agrobacterium (EHA105) comprising the pQY2329 overexpression vector was inoculated into YEP liquid medium (containing 25 mg/L Rifampicin and 50 mg/L Kanamycin), and shaking-cultured a t 28° C., 220 rmp/min overnight until the OD600 was about 1.0-1.5, then centrifuged at 6000 rmp/min for 10 min to collect the cells into a 50 ml centrifuge tube (sterilized). After discarding the supernatant, the cells were resuspended using MS infect culture medium (containing 68.5 g/L sucrose, 36 g/L glucose, pH 5.8) to OD550=0.8. […]

B1: QYD42: AAD-like enzyme, SEQ ID NO. 83; expressed from vectors pQY2309 (Arabidopsis), pQY2329 (maize), pQY2330 (soybean) (protein)
chain: MQITPIADATFGATVTGLRLATLDDAGFARLHAAWLQHALLVFPGQFLTNAEQIGFAKRFGPIERIGGGDIVAISNVKADGTVRQHSPAEWDDMMKVIVGNMAWHADSTYMPVMAQGAVFSAEVVPPTGGRTCFADMRAAYDALDDATRALVHQRSARHSLVYSQSKLGHVQQAGSAYVGYGMDTTATPLRPLVKRHPETGRLSLLIGRHAHAIPGLEEAESERFLEDLVAWACQPPRVVAHHWTAGDVVLWDNRCLLHRAEPWDFTLPRVMWHSRLAGHPETEAAPLV
modifications: Synthetic polypeptide, QYD42, D42
Chromogenic reaction of degrading herbicides in bacteria: Triclopyr [1]: Yes
Chromogenic reaction of degrading herbicides in bacteria: Triclopyr ([1]; listed as D42): slight degradation
Chromogenic reaction of degrading herbicides in bacteria: 2,4-D [2]: Yes
Chromogenic reaction of degrading herbicides in bacteria: 2,4-D ([2]; listed as D42): could degrade 2,4-D; also recorded: capable of degrading 2,4-D
Resistance of T1 transgenic maize to 2,4-D (spray) (maize B104): grew normally without any growth inhibition; also recorded: no apparent deformity
